# Laboratory results published in patent publication US20180282719A1 (published 2018).
# Where two headings read alike, the source gives them in different places.
# T1: recombinant soluble human IL-6 receptor (SR344) (human, UniProt P08887 20-344, biotinylated (sites not given) where immobilized via streptavidin or used in phage ELISA)
# T1 construct: also called soluble IL-6 receptor; membrane-type IL-6 receptor (when biotinylated and immobilized on the chip)
# T1 sequence (looked up): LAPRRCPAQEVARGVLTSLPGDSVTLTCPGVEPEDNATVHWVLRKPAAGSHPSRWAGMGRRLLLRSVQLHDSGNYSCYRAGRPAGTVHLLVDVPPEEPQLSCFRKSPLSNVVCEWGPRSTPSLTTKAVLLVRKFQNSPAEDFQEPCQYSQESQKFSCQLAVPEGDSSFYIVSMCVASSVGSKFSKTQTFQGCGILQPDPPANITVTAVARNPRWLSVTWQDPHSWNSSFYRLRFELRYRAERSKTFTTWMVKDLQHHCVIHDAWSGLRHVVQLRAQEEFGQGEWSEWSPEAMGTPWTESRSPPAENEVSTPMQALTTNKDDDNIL
# Experiments:
# [1] = target: T1, recombinant soluble human IL-6 receptor …; assay: SPR Biacore T100, biotinylated SR344 on streptavidin chip (model of membrane-type IL-6 receptor), antibody as analyte, bound at pH 7.4, dissociation at pH 5.8, 37 C
# Method: (§1) Binding to the membrane-type IL-6 receptor was evaluated by evaluating binding to the IL-6 receptor immobilized on a sensor chip. SR344 was biotinylated in accordance with a method known among persons with ordinary skill in the art, and the biotinylated SR344 was immobilized on the sensor chip via streptavidin using the affinity between streptavidin and biotin. All the measurements were carried out at 37° C. The mobile phase buffer was 10 mM MES (pH 5.8), 150 mM NaCl and 0.05% TWEEN® 20 (polyoxyethelene sorbitan monolaurate).
# (§2) The pH-dependently-binding clones were injected under the condition of pH 7.4 to allow them to bind to SR344, and then, the pH-dependent dissociation of each clone at the pH of the mobile phase, pH 5.8, was observed. The results are shown in FIG. 21 (results for Fv1-M71, Fv1-M73, Fv3-M71, and Fv3-M73 are shown in FIG. 21, while results for other clones are shown in FIGS. 17 and 19). Analyses were carried out in the same manner as in Example 10 and the pH dependencies of the dissociation rate constants of all of the eleven types of clones are shown in Table 12.
# [2] = target: T1, recombinant soluble human IL-6 receptor …; assay: SPR Biacore T100, biotinylated SR344 on streptavidin chip (model of membrane-type IL-6 receptor), antibody as analyte, 37 C
# Method: as §1, §2
# [3] = target: T1, recombinant soluble human IL-6 receptor …; assay: SPR Biacore T100, antibody captured by anti-IgG gamma chain F(ab)2, SR344 analyte, pH 7.4, 37 C
# Method: (§3) Kinetic analyses of antigen-antibody reactions at pH 7.4 were carried out on the four types of antibodies, i.e., the humanized PM1 antibody (wild type: WT), and […], H3pI/L73-IgG1, Fv2-IgG1, and Fv4-IgG1 constructed in Examples 2 and 10, by using a Biacore T100™ surface plasmon resonance system (GE Healthcare) (buffer: 10 mM MES (pH 7.4), 150 mM NaCl, 0.05% TWEEN® 20 (polyoxyethelene sorbitan monolaurate)). Each antibody was bound on a sensor chip on which an anti-IgG γ chain specific F(ab)₂ (Pierce) was immobilized by amine coupling, and then, SR344 adjusted to a concentration of 9.8 to 40 nM was injected thereto as an analyte. The association to and dissociation from SR344 were observed on a real-time basis for the pH-dependent-binding clones. All the measurements were carried out at 37° C. Association rate constants kₐ (1/Ms) and dissociation rate constants kd (1/s) were calculated using Biacore T100™ Evaluation Software (GE Healthcare), and dissociation constants KD (M) were calculated on the basis of those values (Table 7).
# (§4) The association to and dissociation from SR344 were observed on a real-time basis using the same method as Example 10 for the eleven types of antibodies, humanized PM1 antibody (wild type: WT) and H3pI/L73-IgG1, Fv1-M71, Fv1-M73, Fv2-IgG1, Fv3-M71, Fv3-M73, Fv4-IgG1, Fv4-IgG2, Fv4-M58, and Fv4-M73, constructed as described above. The association rate constants kₐ (1/Ms) and dissociation rate constants kd. (1/s) were calculated by analysis in the same manner, and the dissociation constants KD (M) were calculated on the basis of those values (Table 11).
# [4] = target: T1, recombinant soluble human IL-6 receptor …; assay: as above; remark: listed apart in the source
# Method: as §3, §4
# [5] = target: T1, recombinant soluble human IL-6 receptor …; assay: SPR Biacore T100, biotinylated SR344 on streptavidin chip (model of membrane-type IL-6 receptor), antibody as analyte, bound at pH 7.4, dissociation at pH 7.4, 37 C
# Method: as §1, §2
# [6] = target: T1, recombinant soluble human IL-6 receptor …; assay: SPR Biacore T100, biotinylated SR344 on streptavidin chip (model of membrane-type IL-6 receptor), antibody as analyte, 37 C; remark: listed apart in the source
# Method: as §1, §2
# [7] = target: T1, recombinant soluble human IL-6 receptor …; assay: SPR Biacore T100, biotinylated SR344 on streptavidin chip (model of membrane-type IL-6 receptor), antibody as analyte, bound at pH 7.4, dissociation at pH 5.8, 37 C; remark: listed apart in the source
# Method: as §1, §2
# [8] = target: T1, recombinant soluble human IL-6 receptor …; assay: SPR Biacore T100, biotinylated SR344 on streptavidin chip (model of membrane-type IL-6 receptor), antibody as analyte, bound at pH 7.4, dissociation at pH 7.4, 37 C; remark: listed apart in the source
# Method: as §1, §2
# [9] = target: T1, recombinant soluble human IL-6 receptor …; assay: SPR Biacore T100, biotinylated SR344 on streptavidin chip (model of membrane-type IL-6 receptor), antibody 0.25 ug/mL as analyte, 37 C
# Method: as §1, §2
# [10] = target: T1, recombinant soluble human IL-6 receptor …; assay: SPR Biacore T100, biotinylated SR344 on streptavidin chip (model of membrane-type IL-6 receptor), antibody 0.25 ug/mL as analyte, bound at pH 7.4, dissociation at pH 5.8, 37 C
# Method: as §1, §2
# [11] = target: T1, recombinant soluble human IL-6 receptor …; assay: SPR Biacore T100, biotinylated SR344 on streptavidin chip (model of membrane-type IL-6 receptor), antibody 0.25 ug/mL as analyte, bound at pH 7.4, dissociation at pH 7.4, 37 C
# [12] = target: T1, recombinant soluble human IL-6 receptor …; assay: SPR Biacore T100, antibody captured by anti-IgG gamma chain F(ab)2, SR344 analyte, pH 7.4, 37 C; remark: listed apart in the source
# Method: as §3
koff [1],kd (pH 5.8)/kd (pH 7.4) [2],Kd [3],koff [3],kon [3],Kd [4],koff [4],kon [4],koff [5],kd (pH 5.8)/kd (pH 7.4) [6],koff [7],koff [8],kd (pH 5.8)/kd (pH 7.4) [9],koff [10],koff [11],Kd [12],koff [12],kon [12],Binder
0.018 s⁻¹,17,1.3 nM,0.0012 s⁻¹,960000 M⁻¹ s⁻¹,1.3 nM,0.0012 s⁻¹,960000 M⁻¹ s⁻¹,0.001 s⁻¹,17,0.018 s⁻¹,0.001 s⁻¹,,,,,,,"Fv4-IgG2 (antibody, VH3-IgG2deltaGK / VL3-CK; also called Fv4-IgG2deltaGK) heavy: QVQLQESGPGLVKPSETLSLTCAVSGHSISHDHAWSWVRQPPGEGLEWIGFISYSGITNYNPSLQGRVTISRDNSKNTLYLQMNSLRAEDTAVYYCARSLARTTAMDYWGEGTLVTVSSASTKGPSVFPLAPCSRSTSESTAALGCLVKDYFPEPVTVSWNSGALTSGVHTFPAVLQSSGLYSLSSVVTVPSSNFGTQTYTCNVDHKPSNTKVDKTVERKCCVECPPCPAPPVAGPSVFLFPPKPKDTLMISRTPEVTCVVVDVSHEDPEVQFNWYVDGVEVHNAKTKPREEQFNSTFRVVSVLTVVHQDWLNGKEYKCKVSNKGLPAPIEKTISKTKGQPREPQVYTLPPSREEMTKNQVSLTCLVKGFYPSDIAVEWESNGQPENNYKTTPPMLDSDGSFFLYSKLTVDKSRWQQGNVFSCSVMHEALHNHYTQKSLSLSP light: DIQMTQSPSSLSASVGDSVTITCQASTDISSHLNWYQQKPGKAPELLIYYGSHLLSGVPSRFSGSGSGTDFTFTISSLEAEDAATYYCGQGNRLPYTFGQGTKVEIERTVAAPSVFIFPPSDEQLKSGTASVVCLLNNFYPREAKVQWKVDNALQSGNSQESVTEQDSKDSTYSLSSTLTLSKADYEKHKVYACEVTHQGLSSPVTKSFNRGEC"
0.0051 s⁻¹,10.1,1.4 nM,0.001 s⁻¹,750000 M⁻¹ s⁻¹,1.4 nM,0.001 s⁻¹,750000 M⁻¹ s⁻¹,0.00051 s⁻¹,10.1,0.0051 s⁻¹,0.00051 s⁻¹,,,,,,,"Fv4-M73 (antibody, VH3-M73 / VL3-CK) heavy: QVQLQESGPGLVKPSETLSLTCAVSGHSISHDHAWSWVRQPPGEGLEWIGFISYSGITNYNPSLQGRVTISRDNSKNTLYLQMNSLRAEDTAVYYCARSLARTTAMDYWGEGTLVTVSSASTKGPSVFPLAPSSKSTSGGTAALGCLVKDYFPEPVTVSWNSGALTSGVHTFPAVLQSSGLYSLSSVVTVPSSNFGTQTYTCNVDHKPSNTKVDKTVERKSCVECPPCPAPPVAGPSVFLFPPKPKDTLMISRTPEVTCVVVDVSQEDPEVQFNWYVDGVEVHNAKTKPREEQFNSTFRVVSVLTVVHQDWLNGKEYKCKVSNKGLPAPIEKTISKTKGQPREPQVYTLPPSQEEMTKNQVSLTCLVKGFYPSDIAVEWESNGQPENNYKTTPPMLDSDGSFFLYSKLTVDKSRWQEGNVFSCSVMHEALHAHYTQKSLSLSP light: DIQMTQSPSSLSASVGDSVTITCQASTDISSHLNWYQQKPGKAPELLIYYGSHLLSGVPSRFSGSGSGTDFTFTISSLEAEDAATYYCGQGNRLPYTFGQGTKVEIERTVAAPSVFIFPPSDEQLKSGTASVVCLLNNFYPREAKVQWKVDNALQSGNSQESVTEQDSKDSTYSLSSTLTLSKADYEKHKVYACEVTHQGLSSPVTKSFNRGEC"
0.0024 s⁻¹,7.18,2 nM,0.00077 s⁻¹,390000 M⁻¹ s⁻¹,,,,0.00034 s⁻¹,,,,7.18,0.0024 s⁻¹,0.00034 s⁻¹,2 nM,0.00077 s⁻¹,390000 M⁻¹ s⁻¹,"Fv2-IgG1 (antibody, V domains shown, VH1-IgG1 as H chain and L82 as L chain) VH: QVQLQESGPGLVKPSETLSLTCAVSGYSISHDHAWSWVRQPPGEGLEWIGHISYSGITNYNPHLQDRVTISRDTSKNQFSLKLSSVTAADTAAYYCARFLARITAHDHWGEGTLVTVSS VL: DIQMTQSPSSLSASVGDSVTITCQASQDISSHLNWYQQKPGKAPELLIYYGSHLHSGVPSRFSGSGSGTDFTFTISSLEAEDAATYYCGQGNRLPYTFGQGTKVEIE"
